Numbered stars: 1 amine (or outer) side, 2 acyl side, 3 side chain; on linkers, the order of the positions; unused ones are H or OH. Bridge positions count the residues as written; N and C are the ends. Side chains are listed from the residue outwards. Ends that are not written are not given here. * marks the point of attachment. C20 diacid = O=C(O)CCCCCCCCCCCCCCCCCCC(=O)*; γGlu = O=C(O)[C@H](CCC(=O)[*:2])N[*:1]; AEEA = NCCOCCOCC(=O)O
T1: human calcitonin receptor (human, UniProt P30988 25-474)
T1 sequence (looked up): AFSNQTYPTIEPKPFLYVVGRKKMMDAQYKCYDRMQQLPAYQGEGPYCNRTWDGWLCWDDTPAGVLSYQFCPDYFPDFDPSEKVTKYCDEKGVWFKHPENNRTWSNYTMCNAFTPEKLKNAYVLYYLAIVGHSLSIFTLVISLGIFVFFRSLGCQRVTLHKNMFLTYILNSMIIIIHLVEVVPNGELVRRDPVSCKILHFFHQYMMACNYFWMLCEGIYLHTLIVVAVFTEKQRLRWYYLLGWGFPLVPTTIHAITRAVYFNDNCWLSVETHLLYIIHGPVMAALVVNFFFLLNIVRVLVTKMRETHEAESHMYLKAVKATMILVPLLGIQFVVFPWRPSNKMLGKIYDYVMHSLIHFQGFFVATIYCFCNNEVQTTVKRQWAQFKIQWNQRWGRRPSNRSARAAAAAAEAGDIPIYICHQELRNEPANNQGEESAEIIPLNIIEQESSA

T2: human amylin receptor (amylin 3(a) receptor: human calcitonin receptor plus RAMP-3) (human, UniProt P30988 25-474; O60896 24-148, limits assumed)
T2 sequence (looked up) 1: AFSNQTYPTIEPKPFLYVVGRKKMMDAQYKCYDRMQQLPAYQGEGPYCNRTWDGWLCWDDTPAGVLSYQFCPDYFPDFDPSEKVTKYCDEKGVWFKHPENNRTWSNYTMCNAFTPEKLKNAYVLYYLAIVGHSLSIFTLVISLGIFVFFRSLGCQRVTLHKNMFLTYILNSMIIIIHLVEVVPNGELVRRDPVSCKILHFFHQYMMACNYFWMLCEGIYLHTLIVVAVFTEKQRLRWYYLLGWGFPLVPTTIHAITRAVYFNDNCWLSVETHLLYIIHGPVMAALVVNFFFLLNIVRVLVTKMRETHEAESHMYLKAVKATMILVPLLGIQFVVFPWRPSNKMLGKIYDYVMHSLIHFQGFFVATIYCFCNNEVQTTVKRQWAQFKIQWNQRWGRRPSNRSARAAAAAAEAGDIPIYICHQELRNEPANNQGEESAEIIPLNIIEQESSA
T2 sequence (looked up) 2: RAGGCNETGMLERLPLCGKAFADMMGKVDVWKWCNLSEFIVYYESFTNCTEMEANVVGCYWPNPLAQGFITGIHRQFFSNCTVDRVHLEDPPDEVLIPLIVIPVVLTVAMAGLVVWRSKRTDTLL


Columns and labels:
[1] = target: T1, human calcitonin receptor; assay: cell-based or functional assay
[2] = target: T2, human amylin receptor (amylin 3(a) …); assay: cell-based or functional assay

| Ratio hCT/hAmylin funct. (hCTR EC50 against hAmylin-R EC50) [1] | hCTR funct. EC50 [1] [nM] | hAmylin-R funct. EC50 [2] [nM] | Binder |
| --- | --- | --- | --- |
| 29.9 | 6.34 | 0.212 | K([AEEA-γGlu-C20 diacid])CNTATCATQRLANFLRHSSPNFGAIPSSTNVGSETY-NH2 (disulfide 2-7; N-terminus assumed; SMILES CC[C@H](C)[C@H](NC(=O)[C@H](C)NC(=O)CNC(=O)[C@H](Cc1ccccc1)NC(=O)[C@H](CC(N)=O)NC(=O)[C@@H]1CCCN1C(=O)[C@H](CO)NC(=O)[C@H](CO)NC(=O)[C@H](Cc1c[nH]cn1)NC(=O)[C@H](CCCNC(=N)N)NC(=O)[C@H](CC(C)C)NC(=O)[C@H](Cc1ccccc1)NC(=O)[C@H](CC(N)=O)NC(=O)[C@H](C)NC(=O)[C@H](CC(C)C)NC(=O)[C@H](CCCNC(=N)N)NC(=O)[C@H](CCC(N)=O)NC(=O)[C@@H](NC(=O)[C@H](C)NC(=O)[C@@H]1CSSC[C@H](NC(=O)[C@@H](N)CCCCNC(=O)COCCOCCNC(=O)CC[C@H](NC(=O)CCCCCCCCCCCCCCCCCCC(=O)O)C(=O)O)C(=O)N[C@@H](CC(N)=O)C(=O)N[C@@H]([C@@H](C)O)C(=O)N[C@@H](C)C(=O)N[C@@H]([C@@H](C)O)C(=O)N1)[C@@H](C)O)C(=O)N1CCC[C@H]1C(=O)N[C@@H](CO)C(=O)N[C@@H](CO)C(=O)N[C@H](C(=O)N[C@@H](CC(N)=O)C(=O)N[C@H](C(=O)NCC(=O)N[C@@H](CO)C(=O)N[C@@H](CCC(=O)O)C(=O)N[C@H](C(=O)N[C@@H](Cc1ccc(O)cc1)C(N)=O)[C@@H](C)O)C(C)C)[C@@H](C)O, also called compound 26) |
| 16.7 | 4.35 | 0.26 | K([AEEA-γGlu-C20 diacid])CNTATCATQRLANFLRHSSPNFGAIPSSTNVGSNTY-NH2 (disulfide 2-7; N-terminus assumed; SMILES CC[C@H](C)[C@H](NC(=O)[C@H](C)NC(=O)CNC(=O)[C@H](Cc1ccccc1)NC(=O)[C@H](CC(N)=O)NC(=O)[C@@H]1CCCN1C(=O)[C@H](CO)NC(=O)[C@H](CO)NC(=O)[C@H](Cc1c[nH]cn1)NC(=O)[C@H](CCCNC(=N)N)NC(=O)[C@H](CC(C)C)NC(=O)[C@H](Cc1ccccc1)NC(=O)[C@H](CC(N)=O)NC(=O)[C@H](C)NC(=O)[C@H](CC(C)C)NC(=O)[C@H](CCCNC(=N)N)NC(=O)[C@H](CCC(N)=O)NC(=O)[C@@H](NC(=O)[C@H](C)NC(=O)[C@@H]1CSSC[C@H](NC(=O)[C@@H](N)CCCCNC(=O)COCCOCCNC(=O)CC[C@H](NC(=O)CCCCCCCCCCCCCCCCCCC(=O)O)C(=O)O)C(=O)N[C@@H](CC(N)=O)C(=O)N[C@@H]([C@@H](C)O)C(=O)N[C@@H](C)C(=O)N[C@@H]([C@@H](C)O)C(=O)N1)[C@@H](C)O)C(=O)N1CCC[C@H]1C(=O)N[C@@H](CO)C(=O)N[C@@H](CO)C(=O)N[C@H](C(=O)N[C@@H](CC(N)=O)C(=O)N[C@H](C(=O)NCC(=O)N[C@@H](CO)C(=O)N[C@@H](CC(N)=O)C(=O)N[C@H](C(=O)N[C@@H](Cc1ccc(O)cc1)C(N)=O)[C@@H](C)O)C(C)C)[C@@H](C)O, also called compound 41) |

From patent US20140087995A1 (published 2014)
